Target: complement C3
Assay: ELISA, peptide coated on plate, serum C3 detected with anti-C3 antibody; relative to A2-0 (SPE B C192S)

| Binder | binding ability relative to reference A2-0 |
| --- | --- |
| GADGRNFYHVNWGWG [SPE B346~360 (as set forth in SEQ ID NO: 6)] | > 50% |
| ALGTGGGAGGFNGYQSAVVGIKP [SPE B376~398 (as set forth in SEQ ID NO: 8)] | > 50% |

Reference: patent publication US20130315946A1
